Measurements from patent publication US20180230220A1 (Amgen, published 2018).

B1: anti-FOLR1/CD3 Bi-Fc (bispecific antibody)
chain 1: not shown
chain 2: HMSSVSAQAAAEPKSSDKTHTCPPCPAPEAAGGPSVFLFPPKPKDTLMISRTPEVTCVVVDVSHEDPEVKFNWYVDGVEVHNAKTKPREEQYNSTYRVVSVLTVLHQDWLNGKEYKCKVSNKALPAPIEKTISKAKGQPREPQVYTLPPSREEMTKNQVSLTCLVKGFYPSDIAVEWESNGQPENNYDTTPPVLDSDGSFFLYSDLTVDKSRWQQGNVFSCSVMHEALHNHYTQKSLSLSPGK
B2: anti-HER2/CD3 Bi-Fc (bispecific antibody)
chain 1: not shown
chain 2: HMSSVSAQAAAEPKSSDKTHTCPPCPAPEAAGGPSVFLFPPKPKDTLMISRTPEVTCVVVDVSHEDPEVKFNWYVDGVEVHNAKTKPREEQYNSTYRVVSVLTVLHQDWLNGKEYKCKVSNKALPAPIEKTISKAKGQPREPQVYTLPPSREEMTKNQVSLTCLVKGFYPSDIAVEWESNGQPENNYDTTPPVLDSDGSFFLYSDLTVDKSRWQQGNVFSCSVMHEALHNHYTQKSLSLSPGK

Columns and labels:
Experiment in all cases: cell-based or functional assay
FOLR1 [1] = target: T1, FOLR1 (human, UniProt P15328 25-234)
T1 sequence (P15328 25-234): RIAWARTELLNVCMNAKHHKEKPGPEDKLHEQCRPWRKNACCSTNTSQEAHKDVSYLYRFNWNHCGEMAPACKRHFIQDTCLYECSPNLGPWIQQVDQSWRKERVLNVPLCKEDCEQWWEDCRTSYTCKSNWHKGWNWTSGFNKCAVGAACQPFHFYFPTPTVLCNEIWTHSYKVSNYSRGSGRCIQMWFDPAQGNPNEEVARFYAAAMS

FOLR1 [2] = target: T1, FOLR1; remark: listed apart in the source
HER2 [3] = target: T2, HER2 (human, UniProt P04626 23-1255)
HER2 [4] = target: T2, HER2; remark: listed apart in the source

Row | Binder | EC50 (pM), T cell-dependent cell cytolysis (TDCC), Cal-51 cells (FOLR1 [1]) [pM] | EC50 (pM), T cell-dependent cell cytolysis (TDCC), T47D cells (FOLR1 [1]) [pM] | EC50 (pM) for eliciting IFN-γ secretion by T cells, T47D cells (FOLR1 [2]) [pM] | EC50 (pM) for eliciting IL-2 secretion by T cells, T47D cells (FOLR1 [2]) [pM] | EC50 (pM) for eliciting IL-10 secretion by T cells, T47D cells (FOLR1 [2]) [pM] | EC50 (pM) for eliciting IL-13 secretion by T cells, T47D cells (FOLR1 [2]) [pM] | EC50 (pM) for eliciting TNF-α secretion by T cells, T47D cells (FOLR1 [2]) [pM] | EC50 (pM) for eliciting IFN-γ secretion by T cells, JIMT-1 cells (HER2 [3]) [pM] | EC50 (pM) for eliciting IL-2 secretion by T cells, JIMT-1 cells (HER2 [3]) [pM] | EC50 (pM) for eliciting IL-10 secretion by T cells, JIMT-1 cells (HER2 [3]) [pM] | EC50 (pM) for eliciting IL-13 secretion by T cells, JIMT-1 cells (HER2 [3]) [pM] | EC50 (pM) for eliciting TNF-α secretion by T cells, JIMT-1 cells (HER2 [3]) [pM] | EC50 (pM), T cell-dependent cell cytolysis (TDCC), JIMT-1 cells (HER2 [4]) [pM] | EC50 (pM), T cell-dependent cell cytolysis (TDCC), T47D cells (HER2 [4]) [pM]
1 | B1 | 1.27 | 1.35 | 48.6 | 67.3 | 110 | 127 | 41.2 | – | – | – | – | – | – | –
2 | B2 | – | – | – | – | – | – | – | 32.9 | 22.3 | 9.6 | 16.4 | 19.5 | 11.5 | 1.03
